Decrease of co-precipitation (IP relative to input) after the CK2 inhibitor CX-5011 data for one substance are collected here from publication PMC12136000.

This assay concerns the target FLAG-tagged eIF3d (wild-type eIF3D-FLAG) (UniProt O15371). Briefly: co-IP; HeLa lysate (50 mM Tris pH7.5, 150 mM NaCl, 1% Triton-X, Benzonase) on anti-flag-beads for 2 h at 4 °C, three washes, western blot; cells treated for 2 h with DMSO or with 3 µM of the CK2 inhibitor CX-5011 before lysis.
Sequence of UniProt O15371 (O15371 whole entry): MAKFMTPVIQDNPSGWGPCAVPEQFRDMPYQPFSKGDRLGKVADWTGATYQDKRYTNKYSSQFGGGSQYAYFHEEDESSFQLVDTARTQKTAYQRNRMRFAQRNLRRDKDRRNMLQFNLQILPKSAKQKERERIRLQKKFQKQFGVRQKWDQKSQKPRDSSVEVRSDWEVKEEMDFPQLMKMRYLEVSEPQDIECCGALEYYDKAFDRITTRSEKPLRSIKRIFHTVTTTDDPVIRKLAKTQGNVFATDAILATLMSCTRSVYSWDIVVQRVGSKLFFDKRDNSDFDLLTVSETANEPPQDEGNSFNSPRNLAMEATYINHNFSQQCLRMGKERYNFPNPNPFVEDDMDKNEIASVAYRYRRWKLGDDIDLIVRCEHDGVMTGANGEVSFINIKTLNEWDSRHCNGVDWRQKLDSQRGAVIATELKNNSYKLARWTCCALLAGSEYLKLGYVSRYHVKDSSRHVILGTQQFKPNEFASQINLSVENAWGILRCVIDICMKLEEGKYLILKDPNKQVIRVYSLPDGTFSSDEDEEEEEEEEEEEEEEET

The substance “eIF4A (from UniProt P60842 1-406) (natural protein)” had a decrease of co-precipitation (IP relative to input) after the CK2 inhibitor CX-5011 of 37 % decrease.
